Assay results from the RNAGym collection of RNA variant scans (doi:10.7554/elife.90254).

B1: OR4K15 (parent)
chain: GUUAACGGUCAUAGGCCAUGGAAACUAGGAGCACCAUUUCGCUGCCAGUGAAGAAAUGAACAAAGAAAAUCUGGGCCAGGCAGGCAUCAAAAGAAAUAGUCUUGCGCUCAACCAGAAAGUCUGUAAUCAUUUUAAGGGUA

Variants of: B1
Test: self-cleavage, relative activity (ratio to wild type); higher = more cleavage; in vitro, sequencing; the parent is a self-cleaving ribozyme

Question: For GUUAACGGUCAUAGGCCAUGGAAACUAGGGGCACCAUUUCGCUGCCAGUGAAGAACUGAACAAAGAAAAUCUGGGCCAGGCAGGCAUCAAAAGAAAUAGUCUUGCGCUCAACCAGAAAGUCUGUAAUCAUUUUAAGGGUA, which self-cleavage is on record?
Answer: 0.43

Question: With GUUAACGGUCAUAGGCCAUGGAAACUAGGGGCACCAUUUCGCUGCCAGUGAAGAAAUGAACAAAGAAAAUCUGGGCCAGGCAGGCAUCAAAAGAAAUAGUCUUGCGCUCAACCAGAAAGUCUGUAAUCGUUUUAAGGGUA as the variant, how does the self-cleavage read?
Answer: 1.02

Question: For GUUAACGGUCAUAGGCCAUGGAAACUAGGGGCACCAUUUCGCUGCCAGUGAAGAAAUGAACAAAGAAAAUCUGGGCCAGGCAGGCAUCAAAAGAAAUAGUCUUGCGCUCAACCAGAAAGUCUGUGAUCAUUUUAAGGGUA, which self-cleavage is on record?
Answer: 0.87

Question: Which self-cleavage does the source give for GUUAACGGUCAUAGGCCAUGGAAACUAGGGGCACCAUUUCGCUGCCAGUGAAGAAAUGAACAAAGAAAAUCUGGGCCAGGCAGGCAUCAAAAGAAAUAGUCUUGCGCUCAACCUGAAAGUCUGUAAUCAUUUUAAGGGUA here?
Answer: 0.05

Question: Which self-cleavage does the source give for GUUAACGGUCAUAGGCCAUGGAAACUAGGGGCACCAUUUCGCUGCCAGUGAAGAAAUGAACAAAGAAAAUCUGGGCCAGGCAGGCAUCAAAAGAAAUAGUCUUGCGCUCAACCGGAAAGUCUGUAAUCAUUUUAAGGGUA here?
Answer: 0.23

Question: For GUUAACGGUCAUAGGCCAUGGAAACUAGGCGCACCAUUUCGCUGCCAGUGAAGAAAUGAACAAAGAAAAUCUGGGCCAGGCAGGCAUCAAAAGAAAUAGUCUUGCGCUCAACCAGAAAGUCUGUAAUCACUUUAAGGGUA, which self-cleavage is on record?
Answer: 1.21

Question: With GUUAACGGUCAUAGGCCAUGGAAACUAGGGGCACCAUUUCGCUGCCAGUGAAGAAAUGAACAAAGAAAAUCUGGGCCAGGCAGGCAUCAAAAGAAAUAGUCUUGCGCUCUACCAGAAAGUCUGUAAUCAUUUUAAGGGUA as the variant, how does the self-cleavage read?
Answer: 1.1

Question: Which self-cleavage does the source give for GUUAACGGUCAUAGGCCAUGGAAACUAGGGGCACCAUUUCGCUGCCAGUGAAGAAAUGAACAAAGAAAAUCUGGGCCAGGCAGGCAUCAAAAGAAAUAGUCUUGCGCUCAACCAGAAAGUCUGUAAUCAUUUUAAGGGUG here?
Answer: 1.34

Question: With GUUAACGGUCAUAGGCCAUGGAAACUAGGGGCACCAUUUCGCUGCCAGUGAAGAAAUGAACAAAGAAAAUCUGGGCCAGGCAGGCAUCAAAGGAAAUAGUCUUGCGCUCAACCAGAAAGUCUGUAAUCAUUUUAAGGGUA as the variant, how does the self-cleavage read?
Answer: 1.05

Question: For GUUAACGGUCAUAGGCCAUGGAAACUAGGGGCACCAUUUCGCUGCCAGUGAAGAAAUGAACAAAGAAAAUCUGGGCCAGGCAGGCAUCAAAUGAAAUAGUCUUGCGCUCAACCAGAAAGUCUGUAAUCAUUUUAAGGGUA, which self-cleavage is on record?
Answer: 0.71

Question: With GUUAACGGUCAUAGGCCAUGGAAACUAGGGGCACCAUUUCGCUGCCAGUGAUGAAAUGAACAAAGAAAAUCUGGGCCAGGCAGGCAUCAAAAGAAAUAGUCUUGCGCUCAACCAGAAAGUCUGUAAUCAUUUUAAGGGUA as the variant, how does the self-cleavage read?
Answer: 1.62

Question: With GUUAACGGUCAUAGGCCAUGGAAACUAGGCGCACCAUUUCGCUGCCAGUGAAGAAAUGAACAAAGAAAAUCUGGGCCAGGCAGGCAUCAAAAGAAAUAGUCUUGCGCUCAACCAGAAAGUCUGUAAUCAUUCUAAGGGUA as the variant, how does the self-cleavage read?
Answer: 1.12

Question: Which self-cleavage does the source give for GUUAACGGUCAUAGGCCAUGGAAACUAGGGGCACCAUUUCGCUGCCAGUGAAGAAAUGAACAGAGAAAAUCUGGGCCAGGCAGGCAUCAAAAGAAAUAGUCUUGCGCUCAACCAGAAAGUCUGUAAUCAUUUUAAGGGUA here?
Answer: 1.57

Question: For GUUAACGGUCAUAGGCCAUGGAAACUAGGGGCACCAUUUCGCUGCCAGUGAAGAAAUGAACAAAGAAAAUCUGGGCCAGGCAGGCAUCAAAAGAAAUAGUCUUGCGCUCAACCAGAAAGUCUGUAAUCAUUUUGAGGGUA, which self-cleavage is on record?
Answer: 0.98

Question: With GUUAACGGUCAUAGGCCAUGGAAACUAGGGGCACCAUUUCGCUGCCAGUGAAGAAAUGAACAAAGAAAAUCUGGGCCAGGCAGGCAUCAAAAGAGAUAGUCUUGCGCUCAACCAGAAAGUCUGUAAUCAUUUUAAGGGUA as the variant, how does the self-cleavage read?
Answer: 0.44

Question: With GUUAACGGUCAUAGGCCAUGGAAACUAGGGGCACCAUUUCGCUGCCAGUGAAGAAAUGAACAAAGAAAAUCUGGGCCAGGCAGGCAUCAAAAGAAAUGGUCUUGCGCUCAACCAGAAAGUCUGUAAUCAUUUUAAGGGUA as the variant, how does the self-cleavage read?
Answer: 0.76

Question: Which self-cleavage does the source give for GUUAACGGUCAUAGGCCAUGGAAACUAGGGGCACCAUUUCGCUGCCAGUGAAGAAAUGAACAAAGAAAAUCUGGGCCAGGCAGGCAUCAAAAGAAAUAGUCUUGCGCUCAUCCAGAAAGUCUGUAAUCAUUUUAAGGGUA here?
Answer: 0.05

Question: With GUUAACGGUCAUAGGCCAUGGAAACUAGGGGCACCAUUUCGCUGCCAGUGAAGUAAUGAACAAAGAAAAUCUGGGCCAGGCAGGCAUCAAAAGAAAUAGUCUUGCGCUCAACCAGAAAGUCUGUAAUCAUUUUAAGGGUA as the variant, how does the self-cleavage read?
Answer: 1.33

Question: For GUUAACGGUCAUAGGCCAUGGAAACUAGGGGCACCAUUUCGCUGCCAGUGAAGAAAUGAACAAAGAAAAUCUGGGCCAGGCAGGCAUCAUAAGAAAUAGUCUUGCGCUCAACCAGAAAGUCUGUAAUCAUUUUAAGGGUA, which self-cleavage is on record?
Answer: 1.68

Question: For GUUAACGGUCAUAGGCCAUGGAAACUAGGGGCACCAUUUCGCUGCCAGUGAAGAAAUGGACAAAGAAAAUCUGGGCCAGGCAGGCAUCAAAAGAAAUAGUCUUGCGCUCAACCAGAAAGUCUGUAAUCAUUUUAAGGGUA, which self-cleavage is on record?
Answer: 1.5

Question: With GUUAACGGUCAUAGGCCAUGGAAACUAGGGGCACCAUUUCGCUGCCAGUGAAGAAAUGAACAAAGAAAUUCUGGGCCAGGCAGGCAUCAAAAGAAAUAGUCUUGCGCUCAACCAGAAAGUCUGUAAUCAUUUUAAGGGUA as the variant, how does the self-cleavage read?
Answer: 1.18

Question: For GUUAACGGUCAUAGGCCAUGGAAACUAGGGGCACCAUUUCGCUGCCAGUGAAGAAAUGAACAAAGAAAAUCUGGGCCAGGCAGGCAUCAAAAGAAAUAGUCUUGCGCUCAACCAGAAAGUCUGUAAUCAUUUUAGGGGUA, which self-cleavage is on record?
Answer: 1.51

Question: Which self-cleavage does the source give for GUUAACGGUCAUAGGCCAUGGAAACUAGGGGCACCAUUUCGCUGCCGGUGAAGAAAUGAACAAAGAAAAUCUGGGCCAGGCAGGCAUCAAAAGAAAUAGUCUUGCGCUCAACCAGAAAGUCUGUAAUCAUUUUAAGGGUA here?
Answer: 0.71

Question: Which self-cleavage does the source give for GUUAACGGUCAUAGGCCAUGGAAACUAGGGGCACCAUUUCGCUGCCCGUGAAGAAAUGAACAAAGAAAAUCUGGGCCAGGCAGGCAUCAAAAGAAAUAGUCUUGCGCUCAACCAGAAAGUCUGUAAUCAUUUUAAGGGUA here?
Answer: 1.21

Question: Which self-cleavage does the source give for GUUAACGGUCAUAGGCCAUGGAAACUAGGGGCACCAUUUCGCUGCCAGUGAAGAAAUGAACGAAGAAAAUCUGGGCCAGGCAGGCAUCAAAAGAAAUAGUCUUGCGCUCAACCAGAAAGUCUGUAAUCAUUUUAAGGGUA here?
Answer: 1.07

Question: For GUUAACGGUCAUAGGCCAUGGAAACUAGGGGCACCAUUUCGCUGCCAGUGAAGAAAUGAACUAAGAAAAUCUGGGCCAGGCAGGCAUCAAAAGAAAUAGUCUUGCGCUCAACCAGAAAGUCUGUAAUCAUUUUAAGGGUA, which self-cleavage is on record?
Answer: 1.29

Question: For GUUAACGGUCAUAGGCCAUGGAAACUAGGGGCACCAUUUCGCUGCCAGUGAAGAAAUGAACAAUGAAAAUCUGGGCCAGGCAGGCAUCAAAAGAAAUAGUCUUGCGCUCAACCAGAAAGUCUGUAAUCAUUUUAAGGGUA, which self-cleavage is on record?
Answer: 0.3

Question: Which self-cleavage does the source give for GUUAACGGUCAUAGGCCAUGGAAACUAGGGGCACCAUUUCGCUGCCAGUGAAGAAAUGAACAACGAAAAUCUGGGCCAGGCAGGCAUCAAAAGAAAUAGUCUUGCGCUCAACCAGAAAGUCUGUAAUCAUUUUAAGGGUA here?
Answer: 1.38

Question: With GUUAACGGUCAUAGGCCAUGGAAACUAGGGGCACCAUUUCGCUGCCAGUGUAGAAAUGAACAAAGAAAAUCUGGGCCAGGCAGGCAUCAAAAGAAAUAGUCUUGCGCUCAACCAGAAAGUCUGUAAUCAUUUUAAGGGUA as the variant, how does the self-cleavage read?
Answer: 1.46

Question: With GUUAACGGUCAUAGGCCAUGGAAACUAGGGGCACCAUUUCGCUGCCAGUGAAGAUAUGAACAAAGAAAAUCUGGGCCAGGCAGGCAUCAAAAGAAAUAGUCUUGCGCUCAACCAGAAAGUCUGUAAUCAUUUUAAGGGUA as the variant, how does the self-cleavage read?
Answer: 1.44

Question: For GUUAACGGUCAUAGGCCAUGGAAACUAGGGGCACCAUUUCGCUGCCAGUGAAGAAAUGAACAAAGAAUAUCUGGGCCAGGCAGGCAUCAAAAGAAAUAGUCUUGCGCUCAACCAGAAAGUCUGUAAUCAUUUUAAGGGUA, which self-cleavage is on record?
Answer: 1.28

Question: For GUUAACGGUCAUAGGCCAUGGAAACUAGGGGCACCUUUUCGCUGCCAGUGAAGAAAUGAACAAAGAAAAUCUGGGCCAGGCAGGCAUCAAAAGAAAUAGUCUUGCGCUCAACCAGAAAGUCUGUAAUCAUUUUAAGGGUA, which self-cleavage is on record?
Answer: 1.32

Question: Which self-cleavage does the source give for GUUAACGGUCAUAGGCCAUGGAAACUAGGGGCACCGUUUCGCUGCCAGUGAAGAAAUGAACAAAGAAAAUCUGGGCCAGGCAGGCAUCAAAAGAAAUAGUCUUGCGCUCAACCAGAAAGUCUGUAAUCAUUUUAAGGGUA here?
Answer: 1.44

Question: For GUUAACGGUCAUAGGCCAUGGAAACUAGGGGCACCAUUUCGCUGCCAGUGAAGAAAUGAACAAAGAAAAUCUGGGCCAGGCAGGCAUCAAAAGAAAUAGUCUUGCGCUCAACCAGAAUGUCUGUAAUCAUUUUAAGGGUA, which self-cleavage is on record?
Answer: 0.62

Question: Which self-cleavage does the source give for GUUAACGGUCAUAGGCCAUGGAAACUAGGGGCACCAUUUCGCUGCCAGUGAAGAAAUGAACAAAGAAAAUCUGGGCCAGGCAGGCAUCAAAAGAAAUAGUCUUGCGCUCAACCAGAAGGUCUGUAAUCAUUUUAAGGGUA here?
Answer: 1.2

Question: Which self-cleavage does the source give for GUUAACGGUCAUAGGCCAUGGAAACUAGGGGCACCAUUUCGCUGCCAGUGAAGAAAUGAACAAAGACAAUCUGGGCCAGGCAGGCAUCAAAAGAAAUAGUCUUGCGCUCAACCAGAAAGUCUGUAAUCAUUUUAAGGGUA here?
Answer: 1.15

Question: For GUUAACGGUCAUAGGCCAUGGAAACUAGGGGCACCAUUUCGCUGCCAGUGAAGAAAUGAGCAAAGAAAAUCUGGGCCAGGCAGGCAUCAAAAGAAAUAGUCUUGCGCUCAACCAGAAAGUCUGUAAUCAUUUUAAGGGUA, which self-cleavage is on record?
Answer: 0.96

Question: Which self-cleavage does the source give for GUUAACGGUCAUAGGCCAUGGAAACUAGGGGCACCAUUUCGCUGCCAGUGAAGAAAUGAACAAAGAAAAUCUGGGCCAGGCCGGCAUCAAAAGAAAUAGUCUUGCGCUCAACCAGAAAGUCUGUAAUCAUUUUAAGGGUA here?
Answer: 0.07

Question: For GUUAACGGUCAUAGGCCAUGGAAACUAGGGGCUCCAUUUCGCUGCCAGUGAAGAAAUGAACAAAGAAAAUCUGGGCCAGGCAGGCAUCAAAAGAAAUAGUCUUGCGCUCAACCAGAAAGUCUGUAAUCAUUUUAAGGGUA, which self-cleavage is on record?
Answer: 1.18

Question: With GUUAACGGUCAUAGGCCAUGGAAACUAGGGGCACCAUUUCGCUGCCAGUGAAGAAAUGAACAAAGAAAAUCUGGGCCAGGCAGGCAUCAAAAGAAAUAGUCUUGCGCUCAACCAGAGAGUCUGUAAUCAUUUUAAGGGUA as the variant, how does the self-cleavage read?
Answer: 1.48

Question: For GUUAACGGUCAUAGGCCAUGGAAACUAGGGGUACCAUUUCGCUGCCAGUGAAGAAAUGAACAAAGAAAAUCUGGGCCAGGCAGGCAUCAAAAGAAAUAGUCUUGCGCUCAACCAGAAAGUCUGUAAUCAUUUUAAGGGUA, which self-cleavage is on record?
Answer: 0.93
